# Laboratory results reported in US20230313187A1, “MODIFICATIONS OF MAMMALIAN CELLS USING ARTIFICIAL MICRO-RNA TO ALTER THEIR PROPERTIES AND THE COMPOSITIONS OF THEIR PRODUCTS” (DNA TWOPOINTO INC., priority 2020, published 2023).
# B1: SEQ ID NO: 196: two-hairpin amiRNA, guides SEQ ID NOs 23 and 24 complementary to Cricetulus griseus FUT8 mRNA (nucleic acid)
# chain: ATCTGATCTTCTGAAGAAAATATATTTCTTTTTATTCATAGCTCTTAACTAGTGGTGATAGCAATGTCAGCAGTGCCTGGAAAAACATCCATTCTCATTCGTGAAGCCACAGATGGAATGAGAATAGATGTTTTTCAAAGTAAGGTTGACCATACTCTACTCTAGTTATATTCTTTAGGCACGAATGTGTGTTTAAAAAAAATAAAAACTAGTGGTGATAGCAATGTCAGCAGTGCCTTTAAATTACATAATGTGGCAGTGTGAAGCCACAGATGACTGCCACATCATGTAATTTACAAGTAAGGTTGACCATACTCTACTCTAGAGTTGTGTTTTAATGTATATTAATGTTACTAATGTGTTTTCAGTTTTATTGATAGTCTTTTCAGTATTATTGATAATCTT
# B2: SEQ ID NO: 197: single hairpin amiRNA, guide SEQ ID NO: 23 complementary to Cricetulus griseus FUT8 mRNA (nucleic acid)
# chain: ATCTGATCTTCTGAAGAAAATATATTTCTTTTTATTCATAGCTCTTAACTAGTGGTGATAGCAATGTCAGCAGTGCCTGGAAAAACATCCATTCTCATTCGTGAAGCCACAGATGGAATGAGAATAGATGTTTTTCAAAGTAAGGTTGACCATACTCTACTCTAGAGTTGTGTTTTAATGTATATTAATGTTACTAATGTGTTTTCAGTTTTATTGATAGTCTTTTCAGTATTATTGATAATCTT
# B3: SEQ ID NO: 209: three-hairpin amiRNA, guides SEQ ID NOs 53, 54, 55 complementary to Cricetulus griseus glutamine synthetase mRNA (nucleic acid)
# chain: ATCTGATCTTCTGAAGAAAATATATTTCTTTTTATTCATAGCTCTTAACTAGTGGTGATAGCAATGTCAGCAGTGCCTTTGAGTTACAATGAGACAGCTGGTGAAGCCACAGATGCAGCTGTCTCCTTGTAACTCACAAGTAAGGTTGACCATACTCTACTCTAGAGTTGTGTTTTAATGTATATTAATGTTACTAATGTGTTTACTAGTGGTGATAGCAATGTCAGCAGTGCCTTATTCTGACCAATAAAAGCAAGGTGAAGCCACAGATGCTTGCTTTTACTGGTCAGAATCAAGTAAGGTTGACCATACTCTACTCTAGGTTATTTTTAGTATGATTCTGTAAAAATGAATTAATACTAACTAGTGGTGATAGCAATGTCAGCAGTGCCTTTTTACCTGAAGAACTAGCAGCGTGAAGCCACAGATGGCTGCTAGTTATTCAGGTAAACAAGTAAGGTTGACCATACTCTACTCTAGTCAGTTTTATTGATAGTCTTTTCAGTATTATTGATAATCTT
# Assays:
# [1] = system: Cricetulus griseus alpha-(1,6)-fucosyl transferase (FUT8) mRNA; assay: Antibody titer and fucosylation with different numbers of amiRNA hairpins in the 3' UTR of the glutamine synthetase selectable marker; format: cell-based; details: for antibody titer: weaker (PGK) promoter operably linked to glutamine synthetase, amiRNA in 3' UTR; for antibody fucosylation: weaker (PGK) promoter, amiRNA in GS 3' UTR, natural level around 80-85%
# Text: One- two- or three-hairpin amiRNAs were incorporated into the 3′ UTR of a glutamine synthetase selectable marker on a transposon. The multi-hairpin amiRNA with nucleotide sequence SEQ ID NO: 194 comprised three hairpins as described in Section 6.1.1.1.
# These amiRNA sequences were placed to the 3′ of an open reading frame encoding a glutamine synthetase protein (with polypeptide sequence SEQ ID NO: 307) and followed by a human globin polyadenylation sequence. The amiRNA genes were cloned into a transposon vector in which they were operably linked to a Pol II promoter. The transposon further comprised genes encoding an antibody with mature light chain polypeptide sequence SEQ ID NO: 286 and mature heavy chain polypeptide sequence SEQ ID NO: 288. The transposon further comprised a left end comprising a 5′-TTAA-3′ target sequence immediately followed by an ITR with nucleotide sequence SEQ ID NO: 423 (which is an embodiment of SEQ ID NO: 421) and additional nucleotide sequence SEQ ID NO: 417 and a right end comprising nucleotide sequence SEQ ID NO: 419 immediately followed by an ITR with nucleotide sequence SEQ ID NO: 424 (which is an embodiment of SEQ ID NO: 422) immediately followed by a 5′-TTAA-3′ target sequence. The transposon was configured so that the multi-hairpin amiRNA, the glutamine synthetase gene and the genes for both antibody chains, as well as all necessary operably linked control elements were transposable by a corresponding transposase.
# Transposons were co-transfected with mRNA encoding transposase with polypeptide sequence SEQ ID NO: 472 into a CHO cell line with no functional glutamine synthetase gene. The pool of transfected cells were grown in the absence of glutamine added to the media until their viability reached 95%. They were then grown in a 14 day fed-batch using Sigma Advanced Fed Batch media. Protein was purified from the culture supernatant using protein A affinity chromatography, reduced with dithiothreitol, and analyzed on an Agilent QTOF mass spectrometer. We integrated the area under the peaks at 50,456 Da (corresponding to the heavy chain modified by G0: the conserved heptasaccharide core composed of 2 N-acetylglucosamine, 3 mannose and 2 other N-acetylglucosamine residues that are β-1,2 linked to α-6 mannose and α-3 mannose, forming two arms) and 50,602 (corresponding to the heavy chain modified by G0F: the conserved heptasaccharide core plus a fucose residue) to calculate the relative proportion of fucosylated and afucosylated antibody.
# Table 5. Inhibition of antibody fucosylation with different numbers of amiRNA hairpins. Transposons were constructed as described in Section 6.1.2.1. The SEQ ID NO of the amiRNA gene including the glutamine synthetase ORF and the globin polyA sequence is given in column A. The Pol II promoter shown in column B was operably linked to the amiRNA whose SEQ ID NO is shown in column C. The amiRNA comprised the number of hairpins shown in column D. Following a 14-day fed batch antibody production run, the culture supernatant contained the concentration of antibody shown in column E. The percentage of antibody that was afucosylated is shown in column F, the percentage that was fucosylated is shown in column G. BDL=below detection limit.
# [2] = system: Cricetulus griseus glutamine synthetase mRNA; assay: Growth of CHO cell pools with amiRNA targeted toward glutamine synthetase in the absence of glutamine; format: cell-based; details: for VCD: glutamine-free media
# Text: The multi-hairpin amiRNA was cloned into a piggyBac-like transposon to the 3′ of a spacer polynucleotide with nucleotide sequence SEQ ID NO: 280, and operably linked to a PGK promoter with nucleotide sequence SEQ ID NO: 386. The nucleotide sequence of the multi-hairpin amiRNA gene is given as SEQ ID NO: 540. The piggyBac-like transposon further comprised a selectable marker conferring resistance to G418/neomycin with amino acid sequence SEQ ID NO: 296. The piggyBac-like transposon further comprised a target sequence 5′-TTAA-3′ immediately followed by an ITR with nucleotide sequence SEQ ID NO: 448 (which is an embodiment of SEQ ID NO: 564), immediately followed by further transposon end sequences with nucleotide sequence SEQ ID NO: 445. The piggyBac-like transposon further comprised nucleotide sequence SEQ ID NO: 446, immediately followed by a second ITR with nucleotide sequence SEQ ID NO: 449 (which is an embodiment of SEQ ID NO: 447), immediately followed by the target sequence 5′-TTAA-3′. The transposon was configured so that the multi-hairpin amiRNA, the spacer polynucleotide and the gene encoding the selectable marker, as well as all necessary operably linked control elements, were transposable by a corresponding transposase. The full sequence of the transposon comprising the multi-hairpin amiRNA gene and selectable marker is given as SEQ ID NO: 544.
# The transposon was co-transfected with mRNA encoding transposase with polypeptide sequence SEQ ID NO: 523 into a CHO cell line with intact glutamine synthetase genes. The pool of transfected cells were grown in the presence of 600 or 1,000 μg/ml G418 plus 5 mM glutamine until their viability reached 95%.
# After the transfected cell pools had recovered to >95% viability, we tested their ability to grow in the absence of glutamine. Cells were transferred to Sigma Advanced Fed Batch media lacking glutamine to an initial a density of 0.3×10^6 live cells/ml. The viable cell density was measured at various times after the removal of glutamine. On the fourth day, cells were diluted back to a density of 0.3×10^6 live cells/ml in media lacking glutamine, to ensure that growing cells had sufficient nutrients. […] After this, the viable cell density approximately tripled between dilution on day 4 and day 6 and doubled again between day 6 and day 8. […] The viable cell density then began to fall for both pools transfected with a transposon comprising the multi-hairpin amiRNA with nucleotide sequence SEQ ID NO: 209 at day 6 (Table 7 columns B and C, compare rows 6, 7 and 8). By day 8 the viable cell density had fallen precipitously to less than 0.02×10^6 live cells/ml. There was no difference between the growth of cells transfected with the control transposon or the transposon comprising the multi-hairpin amiRNA with nucleotide sequence SEQ ID NO: 209 in the presence of glutamine: all pools grew well. We conclude that a multi-hairpin amiRNA comprising guide strand sequences complementary to three different sequences within the CHO glutamine synthetase mRNA target (nucleotide sequence SEQ ID NO: 10) can be used to make a CHO cell dependent upon exogenously provided glutamine. The cells in this pool had been selected with neomycin/G418, which allowed growth of cells whose genomes comprised the transposon comprising the multi-hairpin amiRNA. […] By using the multi-hairpin amiRNA gene we were able to produce a pool of cells in which expression of the essential metabolic enzyme glutamine synthetase was inhibited to a level that prevents growth of the cell in greater than 93% of the cells in the pool.
# The multi-hairpin amiRNA with nucleotide sequence SEQ ID NO: 209 was also cloned into three other piggyBac-like transposons, also to the 3′ of a spacer polynucleotide with nucleotide sequence SEQ ID NO: 280. In the first transposon the multi-hairpin amiRNA was operably linked to a PGK promoter with nucleotide sequence SEQ ID NO: 385. […]
molecule,measurement,setting,value
B1,antibody titer,[1],770 mg/L
same,antibody fucosylation,[1],10%
B2,antibody titer,[1],514 mg/L
same,antibody fucosylation,[1],about 50%
B3,cells in the pool in which glutamine synthetase is inhibited to a level that prevents growth,[2]; G418-selected pool,greater than 93%
same,dependence on exogenously supplied glutamine,"[2]; amiRNA operably linked to a promoter and integrated into the CHO genome, also PGK, EF1, EEF2 promoters in other transposons, listed as 209",completely dependent upon exogenously supplied glutamine
same,increase in viable cell density,"[2]; between day 1 and day 4 without glutamine, pool selected with 600 μg/ml G418",less than 50%
same,cells still alive,[2]; by day 8 without glutamine,less than 7%
same,viable cell density,"[2]; by day 8 without glutamine, both pools",less than 0.02 ×10^6 live cells/ml
same,VCD,"[2]; 600 ug/ml G418 pool, day 1",0.45 x 10^6 live cells/ml
same,VCD,"[2]; 600 ug/ml G418 pool, day 4 after dilution",0.30 x 10^6 live cells/ml
same,VCD,"[2]; 600 ug/ml G418 pool, day 4 before dilution",0.47 x 10^6 live cells/ml
same,VCD,"[2]; 600 ug/ml G418 pool, day 6",0.21 x 10^6 live cells/ml
same,VCD,"[2]; 600 ug/ml G418 pool, day 8",0.01 x 10^6 live cells/ml
same,VCD,"[2]; 1000 ug/ml G418 pool, day 1",0.31 x 10^6 live cells/ml
same,VCD,"[2]; 1000 ug/ml G418 pool, day 4 after dilution",0.30 x 10^6 live cells/ml
same,VCD,"[2]; 1000 ug/ml G418 pool, day 4 before dilution",0.30 x 10^6 live cells/ml
same,VCD,"[2]; 1000 ug/ml G418 pool, day 6",0.26 x 10^6 live cells/ml
same,VCD,"[2]; 1000 ug/ml G418 pool, day 8",0.02 x 10^6 live cells/ml
same,VCD,"[2]; pool selected with 600 ug/ml G418, day 0 (inoculation)",0.30 x 10^6 live cells/ml
same,VCD,"[2]; pool selected with 1000 ug/ml G418, day 0 (inoculation)",0.30 x 10^6 live cells/ml
same,increase in viable cell density,"[2]; to day 4 without glutamine, pool selected with 1,000 μg/ml G418",failed to increase their viable cell density at all
